Measurements as given in patent publication US20110143379A1 (Johns Hopkins, published 2011).

Molecular target: T1, albumin (in whole human plasma) (human, UniProt P02768 25-609)
T1 construct: Endogenous plasma protein, not a purified reagent
Test: ethanol precipitation of human plasma spiked with TRX; fractions followed by western blot

T1 sequence (P02768 25-609 limits assumed): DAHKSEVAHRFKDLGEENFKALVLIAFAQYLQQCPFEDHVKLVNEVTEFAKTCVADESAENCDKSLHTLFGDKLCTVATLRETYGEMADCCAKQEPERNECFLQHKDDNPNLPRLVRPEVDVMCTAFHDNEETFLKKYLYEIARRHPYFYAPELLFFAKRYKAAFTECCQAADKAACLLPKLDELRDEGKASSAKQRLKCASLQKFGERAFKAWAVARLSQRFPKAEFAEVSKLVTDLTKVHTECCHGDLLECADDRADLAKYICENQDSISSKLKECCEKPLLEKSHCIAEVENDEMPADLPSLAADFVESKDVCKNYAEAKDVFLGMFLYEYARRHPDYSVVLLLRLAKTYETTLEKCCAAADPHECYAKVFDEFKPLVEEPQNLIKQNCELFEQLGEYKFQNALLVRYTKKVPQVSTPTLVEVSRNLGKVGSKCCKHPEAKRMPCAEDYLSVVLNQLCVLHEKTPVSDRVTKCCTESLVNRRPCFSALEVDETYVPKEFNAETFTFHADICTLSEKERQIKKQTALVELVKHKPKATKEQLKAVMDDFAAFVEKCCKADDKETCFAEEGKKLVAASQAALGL

B1: recombinant human thioredoxin (TRX), full length (enzyme)
chain: VKQIESKTAFQEALDAAGDKLVVVDFSATWCGPCKMIKPFFHSLSEKYSNVIFLEVDVDDCQDVASECEVKCMPTFQFFKKGQKVGEFSGANKEKLEATINELV
notes: It was denatured on SDS gels for the western blots; also called full-length thioredoxin
- binding result: binds
